{"source": "patent US20150266957A1", "about": "(Regeneron, published 2015)", "binders": {"B1": {"name": "H1M6386N (antibody, mouse IgG1, V domains shown)", "VH": "NVQLVESGGGLVKPGGSLRLSCVASGFTFANAWMTWVRQAPGKGLEWVGRIKSKTDGGTTDHAAPVKGRFIVSRDDSKSTLYLQMNSLKTEDTAVYYCTNYAFQLWGQGTLVTVSS", "VL": "DIVMTQTPLSSLVTLGQSASISCRSSQGLVHSDGNTYLSWLHQRPGQPPRLLIYKISNRFSGVPDRFTGSGAGTDFTLKISRVEAEDVGVYYCMQSTQFPRTFGQGTKVEIK", "notes": "Chimeric: human variable domains, mouse constant domains"}}, "key": {"human PROKR1": {"target": "human PROKR1 (human, UniProt Q8TCW9 1-393)", "sequence (Q8TCW9 whole entry)": "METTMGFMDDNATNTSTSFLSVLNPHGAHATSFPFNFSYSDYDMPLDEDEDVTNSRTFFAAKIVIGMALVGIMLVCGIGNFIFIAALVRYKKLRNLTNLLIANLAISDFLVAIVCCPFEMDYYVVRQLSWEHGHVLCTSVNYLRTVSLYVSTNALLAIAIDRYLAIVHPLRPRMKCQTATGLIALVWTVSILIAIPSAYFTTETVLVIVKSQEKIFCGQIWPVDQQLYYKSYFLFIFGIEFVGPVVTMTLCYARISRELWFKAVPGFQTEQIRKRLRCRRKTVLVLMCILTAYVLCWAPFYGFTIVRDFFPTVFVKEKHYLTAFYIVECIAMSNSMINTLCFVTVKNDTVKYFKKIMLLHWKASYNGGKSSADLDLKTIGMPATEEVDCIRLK", "assay": "cell-based or functional assay"}, "cynomolgus monkey PROKR2": {"target": "T1, cynomolgus monkey PROKR2 (cynomolgus monkey (Macaca fascicularis), UniProt A0A7N9CAJ3 1-384)", "T1 construct": "whole, on cells; Expressed on engineered HEK293 cells; also called MfPROKR2; 293/mfPROKR2", "T1 sequence (A0A7N9CAJ3 entry or part of it)": "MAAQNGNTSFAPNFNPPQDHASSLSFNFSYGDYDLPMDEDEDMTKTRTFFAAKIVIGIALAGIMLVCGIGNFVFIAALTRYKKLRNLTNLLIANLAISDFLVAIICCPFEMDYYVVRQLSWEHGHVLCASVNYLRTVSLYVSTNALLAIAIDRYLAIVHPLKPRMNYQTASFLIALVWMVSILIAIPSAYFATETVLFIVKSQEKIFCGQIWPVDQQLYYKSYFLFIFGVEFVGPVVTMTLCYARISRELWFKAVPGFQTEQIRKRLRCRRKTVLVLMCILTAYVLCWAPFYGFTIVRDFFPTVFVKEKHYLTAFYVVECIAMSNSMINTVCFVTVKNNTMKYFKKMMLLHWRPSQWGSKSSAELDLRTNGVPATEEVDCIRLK", "assay": "flow cytometry, HEK293 cells expressing the target", "protocol": "(§1) Anti-PROKR antibodies generated in accordance with Example 1 were tested for the ability to bind to human, mouse, and monkey PROKR1 and PROKR2. For these experiments, HEK293 cells were engineered to express: human PROKR1; human PROKR2; mouse PROKR1; mouse PROKR2; cynomolgus monkey PROKR1; or cynomolgus monkey PROKR2. Binding of anti-human PROKR antibodies to the PROKR-expressing cell lines was measured by flow cytometry.\n(§2) Adherent cells were collected using 1 mM EDTA in PBS, then washed, and re-suspended in cold PBS containing 5% FBS. For the binding experiments, each anti-PROKR antibody was added to 250,000 cells in 500 μl of PBS with 5% FBS (final antibody concentration of 13 nM). After incubation for 20 minutes at room temperature, the cells were washed with PBS containing 5% FBS. A secondary antibody, recognizing either human (Jackson Immuno Research, #115-135-205) or mouse Fc (BD Pharmigen, #550826) and conjugated to allophycyanin, was then added to the cell mixture at a final concentration of 13.3 nM. After incubating for 20 minutes on ice, the cells were washed and resuspended in PBS containing 5% FBS and then sorted and analyzed on a FACSCalibur (BD Biosciences) flow cytometer to determine relative binding by the candidate antibodies. The cell samples containing secondary antibody alone were used as negative control for FACS gating. Histograms of cells stained with anti-human PROKR antibodies were compared with cells stained with secondary alone. […] ND=not determined."}, "cynomolgus monkey PROKR1": {"target": "T2, cynomolgus monkey PROKR1 (cynomolgus monkey (Macaca fascicularis), UniProt G7PMD0 1-393)", "T2 construct": "whole, on cells; Expressed on engineered HEK293 cells; also called MfPROKR1; 293/mfPROKR1", "T2 sequence (G7PMD0 entry or part of it)": "as the sequence (Q8TCW9 whole entry) above, with V22A, T31A, S40G, I82V, V135I, K210R, V246F, D348N, V350A counted along it", "assay": "flow cytometry, HEK293 cells expressing the target", "protocol": "as §1, §2"}, "mouse PROKR1": {"target": "T3, mouse PROKR1 (mouse (Mus musculus), UniProt Q9JKL1 1-393)", "T3 construct": "whole, on cells; Expressed on engineered HEK293 or CHO cells; also called mPROKR1; 293/mPROKR1", "T3 sequence (Q9JKL1 whole entry)": "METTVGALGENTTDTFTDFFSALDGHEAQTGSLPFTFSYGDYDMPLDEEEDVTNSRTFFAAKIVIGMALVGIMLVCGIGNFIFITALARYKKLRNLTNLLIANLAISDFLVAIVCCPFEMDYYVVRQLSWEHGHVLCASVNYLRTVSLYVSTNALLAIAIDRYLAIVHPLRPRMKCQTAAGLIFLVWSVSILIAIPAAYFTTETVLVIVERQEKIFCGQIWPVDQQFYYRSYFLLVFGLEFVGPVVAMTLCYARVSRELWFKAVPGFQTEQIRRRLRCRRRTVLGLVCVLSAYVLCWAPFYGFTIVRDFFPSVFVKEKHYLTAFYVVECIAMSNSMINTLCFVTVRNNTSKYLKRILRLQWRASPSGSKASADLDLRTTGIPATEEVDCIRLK", "assay": "flow cytometry, HEK293 cells expressing the target", "protocol": "as §1, §2"}, "mouse PROKR2": {"target": "T4, mouse PROKR2 (mouse (Mus musculus), UniProt Q8K458 1-381)", "T4 construct": "whole, on cells; Expressed on engineered HEK293 or CHO cells; also called mPROKR2; CHO/mPROKR2", "T4 sequence (Q8K458 whole entry)": "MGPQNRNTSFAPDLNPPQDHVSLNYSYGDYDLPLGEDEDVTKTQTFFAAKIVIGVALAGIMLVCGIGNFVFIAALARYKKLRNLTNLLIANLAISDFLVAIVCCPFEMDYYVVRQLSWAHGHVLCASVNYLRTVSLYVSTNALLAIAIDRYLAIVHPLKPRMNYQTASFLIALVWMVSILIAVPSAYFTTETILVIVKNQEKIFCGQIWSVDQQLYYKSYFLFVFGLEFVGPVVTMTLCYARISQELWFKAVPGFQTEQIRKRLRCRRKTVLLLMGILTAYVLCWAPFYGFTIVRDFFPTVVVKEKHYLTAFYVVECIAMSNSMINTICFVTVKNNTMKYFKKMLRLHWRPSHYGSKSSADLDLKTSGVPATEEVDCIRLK", "assay": "flow cytometry, HEK293 cells expressing the target", "protocol": "as §1, §2"}, "human PROKR2(1-53)-hFc": {"target": "T5, human PROKR2(1-53)-hFc (human)", "T5 construct": "also called soluble human PROKR2 (N-terminal portion)", "assay": "SPR (Biacore 4000), 25 C, antibody captured", "protocol": "(§3) Kinetic experiments were carried out using HBS-EP (10 mM HEPES, 150 mM NaCl, 3 mM EDTA, 0.05% Surfactant P20, pH 7.4) as both the running buffer and the sample buffer. Antigen-antibody association rates were measured by injecting 2 concentrations (25 and 100 nM) of both human PROKR1 (1-62)-hFc (SEQ ID NO:179) and human PROKR2(1-53)-hFc (SEQ ID NO:180) over the captured antibody surface. Antibody-antigen association was monitored for 90 seconds while dissociation was monitored for 360 seconds. Kinetic on-rate (kₐ) and off-rate (kd) constants were determined from the data using Scrubber software version 2.0 c. Binding dissociation equilibrium constants (KD) and dissociative half-lives (t 1/2) were calculated from the kinetic rate constants as: KD=kd/kₐ and t 1/2=ln(2)/kd."}, "human PROKR2": {"target": "T6, human PROKR2 (human, UniProt Q8NFJ6 1-384)", "T6 construct": "Expressed on engineered HEK293 or CHO cells; also called hPROKR2; prokineticin receptor 2", "T6 sequence (Q8NFJ6 whole entry)": "as the sequence (A0A7N9CAJ3 entry or part of it) above, with A11T, W357R, E364D, A374T counted along it", "assay": "flow cytometry, HEK293 cells expressing the target, 13 nM antibody", "protocol": "as §1, §2"}, "human PROKR1 (1-62)-hFc": {"target": "T7, human PROKR1 (1-62)-hFc (human)", "T7 construct": "also called soluble human PROKR1 (N-terminal portion)", "T7 sequence (chain, as listed by the source limits assumed)": "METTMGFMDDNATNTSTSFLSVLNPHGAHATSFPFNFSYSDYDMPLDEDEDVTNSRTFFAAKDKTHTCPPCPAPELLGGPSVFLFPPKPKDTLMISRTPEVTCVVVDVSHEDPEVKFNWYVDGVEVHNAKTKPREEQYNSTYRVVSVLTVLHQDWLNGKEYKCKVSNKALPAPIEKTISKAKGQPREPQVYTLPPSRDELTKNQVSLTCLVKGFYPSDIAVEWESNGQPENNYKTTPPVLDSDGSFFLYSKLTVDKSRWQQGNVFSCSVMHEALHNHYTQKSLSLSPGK", "assay": "SPR (Biacore 4000), 25 C, antibody captured, antigen injected at 25 and 100 nM", "protocol": "as §3"}}, "data": [{"binder": "B1", "values": [{"measurement": "Block (%), calcium flux, hPROKR1 + PK1 (20 nM hPK1)", "setting": "human PROKR1", "value": 92, "unit": "%"}, {"measurement": "IC50 (nM), inhibition of calcium flux, hPROKR1 + PK1 (20 nM hPK1)", "setting": "human PROKR1", "value": 14.9, "unit": "nM"}, {"measurement": "IC50 (nM), inhibition of calcium flux, hPROKR1 + PK2 (20 nM hPK2)", "setting": "human PROKR1", "value": 16.2, "unit": "nM"}, {"measurement": "binding result", "setting": "cynomolgus monkey PROKR2", "value": "no binding"}, {"measurement": "binding result", "setting": "cynomolgus monkey PROKR1", "value": "no binding"}, {"measurement": "binding result", "setting": "mouse PROKR1", "value": "no binding"}, {"measurement": "binding result", "setting": "mouse PROKR2", "value": "no binding"}, {"measurement": "binding result", "setting": "human PROKR2(1-53)-hFc", "value": "no binding (tested: 25 and 100 nM antigen injected)"}, {"measurement": "binding result", "setting": "human PROKR2", "value": "binds"}, {"measurement": "Kd", "setting": "human PROKR1 (1-62)-hFc", "value": 0.00485, "unit": "µM"}, {"measurement": "koff", "setting": "human PROKR1 (1-62)-hFc", "value": 0.00103, "unit": "s⁻¹"}, {"measurement": "kon", "setting": "human PROKR1 (1-62)-hFc", "value": 212000, "unit": "M⁻¹ s⁻¹"}, {"measurement": "t½", "setting": "human PROKR1 (1-62)-hFc", "value": 11, "unit": "min"}]}]}
